# Laboratory results reported in patent publication US20220363770A1 (Amgen, published 2022).
# Substitutions are numbered along the chain they refer to.
# B1: iPS:454895 (bispecific antibody, human IgG1, kappa, lambda, N297G)
# light 1: QSVLTQPPSVSAAPGQKVTISCSGSSSNIGNNYVSWYQQLPGTAPKLLIYDNNKRPSGIPDRFSGSKSGTSTTLGITGLQTGDEADYYCGTWDSRLSAVVFGGGTKLTVLGQPKAAPSVTLFPPSSEELQANKATLVCLISDFYPGAVTVAWKADSSPVKAGVETTTPSKQSNNKYAAKSYLSLTPEQWKSHRSYSCQVTHEGSTVEKTVAPTECS
# heavy 1: QVQLVESGGGVVQPGRSLRLSCAASGFTFSSFGMHWVRQAPGKGLEWVAVISFDGSIKYSVDSVKGRFTISRDNSKNTLFLQMNSLRAEDTAVYYCARDRLNYYRSFGYYGYHYYGMAVWGQGTTVTVSSASTKGPSVFPLAPSSKSTSGGTAALGCLVKDYFPEPVTVSWNSGALTSGVHTFPAVLQSSGLYSLESVVTVPSSSLGTQTYICNVNHKPSNTKVDKKVEPKSCDKTHTCPPCPAPELLGGPSVFLFPPKPKDTLMISRTPEVTCVVVDVSHEDPEVKFNWYVDGVEVHNAKTKPCEEQYGSTYRCVSVLTVLHQDWLNGKEYKCKVSNKALPAPIEKTISKAKGQPREPQVYTLPPSRKKMTKNQVSLTCLVKGFYPSDIAVEWESNGQPENNYKTTPPVLKSDGSFFLYSKLTVDKSRWQQGNVFSCSVMHEALHNHYTQKSLSLSPGK
# light 2: EIVLTQSPATLSLSPGERATLSCRASQSVGRSLHWYQQKPGQAPRLLIKYASQSLSGIPARFSGSGSGTDFTLTISSLEPEDFAVYYCHQSSRLPFTFGPGTKVDIKRTVAAPSVFIFPPSDEQLKSGTASVVCLLNNFYPREAKVQWKVDNALQSGNSQESVTEQDSKDSTYSLESTLTLSKADYEKHKVYACEVTHQGLSSPVTKSFNRGEC
# heavy 2: not shown
# B2: iPS:454897 (bispecific antibody, human IgG1, kappa, lambda, N297G)
# light 1: B1 light 1
# heavy 1: B1 heavy 1
# light 2: B1 light 2 with Q27K
# heavy 2: not shown
# B3: iPS:454899 (bispecific antibody, human IgG1, kappa, lambda, N297G)
# light 1: B1 light 1
# heavy 1: B1 heavy 1
# light 2: B1 light 2 with Q27K
# heavy 2: not shown
# B4: iPS:454901 (bispecific antibody, human IgG1, kappa, lambda, N297G)
# light 1: B1 light 1
# heavy 1: B1 heavy 1
# light 2: B1 light 2 with Q27K, S28A, R31W
# heavy 2: not shown
# B5: iPS:454903 (bispecific antibody, human IgG1, kappa, lambda, N297G)
# light 1: B1 light 1
# heavy 1: B1 heavy 1
# light 2: B1 light 2 with Q27K, R31W
# heavy 2: not shown
# B6: iPS:454905 (bispecific antibody, human IgG1, kappa, lambda, N297G)
# light 1: B1 light 1
# heavy 1: B1 heavy 1
# light 2: B1 light 2 with Q27K, R31W
# heavy 2: not shown
# B7: iPS:454907 (bispecific antibody, human IgG1, kappa, lambda, N297G)
# light 1: B1 light 1
# heavy 1: B1 heavy 1
# light 2: B1 light 2 with Q27K, R31W
# heavy 2: not shown
# B8: iPS:454909 (bispecific antibody, human IgG1, kappa, lambda, N297G)
# light 1: B1 light 1
# heavy 1: B1 heavy 1
# light 2: B1 light 2 with Q27K, R31W
# heavy 2: not shown
# B9: iPS:454911 (bispecific antibody, human IgG1, kappa, lambda, N297G)
# light 1: B1 light 1
# heavy 1: B1 heavy 1
# light 2: B1 light 2 with Q27K, R31W
# heavy 2: not shown
# B10: iPS:454913 (bispecific antibody, human IgG1, kappa, lambda, N297G)
# light 1: B1 light 1
# heavy 1: B1 heavy 1
# light 2: B1 light 2 with Q27K, R31W
# heavy 2: not shown
# B11: iPS:454915 (bispecific antibody, human IgG1, kappa, lambda, N297G)
# light 1: B1 light 1
# heavy 1: B1 heavy 1
# light 2: B1 light 2 with Q27K, R31W
# heavy 2: not shown
# B12: iPS:454917 (bispecific antibody, human IgG1, kappa, lambda, N297G)
# light 1: B1 light 1
# heavy 1: B1 heavy 1
# light 2: B1 light 2 with Q27K, R31W
# heavy 2: not shown
# B13: iPS:454919 (bispecific antibody, human IgG1, kappa, lambda, N297G)
# light 1: B1 light 1
# heavy 1: B1 heavy 1
# light 2: B1 light 2 with Q27K, R31Y
# heavy 2: not shown
# B14: iPS:571009 (5602) (bispecific antibody, human IgG1, kappa, lambda, N297G)
# light 1: B1 light 1 with S26Y, N31R, N32Y, Y33S, T72A
# heavy 1: B1 heavy 1 with R105E, F107S, G111H, H113K, K370E
# light 2: B1 light 2 with Q27K
# heavy 2: not shown
# B15: iPS:571015 (5603) (bispecific antibody, human IgG1, kappa, lambda, N297G)
# light 1: B1 light 1 with S26Y, N31R, N32Y, Y33S, T72A
# heavy 1: B1 heavy 1 with R105E, F107S, G111H, H113K, K369E
# light 2: B1 light 2 with Q27K
# heavy 2: not shown
# B16: iPS:454557 (5601) (bispecific antibody, human IgG1, kappa, lambda, N297G)
# light 1: B1 light 1 with S26Y, N31R, N32Y, Y33S, T72A
# heavy 1: B1 heavy 1 with R105E, F107S, G111H, H113K, K370E
# light 2: B1 light 2 with Q27K
# heavy 2: not shown
# B17: iPS:454565 (5606) (bispecific antibody, human IgG1, kappa, lambda, N297G)
# light 1: B1 light 1 with S26Y, N31R, N32Y, Y33S, T72A
# heavy 1: B1 heavy 1 with R105E, F107S, G111H, H113K, K370E
# light 2: B1 light 2 with Q27K
# heavy 2: not shown
# B18: iPS:454569 (bispecific antibody, human IgG1, kappa, lambda, N297G)
# light 1: B1 light 1 with S26Y, N31R, N32Y, Y33S, T72A
# heavy 1: B1 heavy 1 with R105E, F107S, G111H, H113K, K370E
# light 2: B1 light 2 with Q27K
# heavy 2: not shown
# B19: iPS:454583 (bispecific antibody, human IgG1, kappa, lambda, N297G)
# light 1: B1 light 1 with S26Y, N31R, N32Y, Y33S, T72A
# heavy 1: B1 heavy 1 with R105E, F107S, G111H, H113K, K370E
# light 2: B1 light 2 with Q27K, R31W
# heavy 2: not shown
# B20: iPS:454585 (bispecific antibody, human IgG1, kappa, lambda, N297G)
# light 1: B1 light 1 with S26Y, N31R, N32Y, Y33S, T72A
# heavy 1: B1 heavy 1 with R105E, F107S, G111H, H113K, K370E
# light 2: B1 light 2 with Q27K, R31W
# heavy 2: not shown
# B21: iPS:454587 (bispecific antibody, human IgG1, kappa, lambda, N297G)
# light 1: B1 light 1 with S26Y, N31R, N32Y, Y33S, T72A
# heavy 1: B1 heavy 1 with R105E, F107S, G111H, H113K, K370E
# light 2: B1 light 2 with Q27K, R31W
# heavy 2: not shown
# B22: iPS:454729 (bispecific antibody, human IgG1, kappa, lambda, N297G)
# light 1: B1 light 1 with S26Y, N31R, N32Y, Y33S, T72A
# heavy 1: B1 heavy 1 with R105E, F107S, G111H, H113K
# light 2: B1 light 2 with Q27K, R31Q
# heavy 2: not shown
# B23: iPS:454731 (bispecific antibody, human IgG1, kappa, lambda, N297G)
# light 1: B1 light 1 with S26Y, N31R, N32Y, Y33S, T72A
# heavy 1: B1 heavy 1 with R105E, F107S, G111H, H113K
# light 2: B1 light 2 with Q27K, S28A, G30W, R31H, S32N, R93M
# heavy 2: not shown
# B24: iPS:454733 (bispecific antibody, human IgG1, kappa, lambda, N297G)
# light 1: B1 light 1 with S26Y, N31R, N32Y, Y33S, T72A
# heavy 1: B1 heavy 1 with R105E, F107S, G111H, H113K
# light 2: B1 light 2 with Q27R, R31L, S32A, R93F
# heavy 2: not shown
# Target: T1, human PAC1 receptor (human, UniProt P41586 24-468)
# T1 sequence: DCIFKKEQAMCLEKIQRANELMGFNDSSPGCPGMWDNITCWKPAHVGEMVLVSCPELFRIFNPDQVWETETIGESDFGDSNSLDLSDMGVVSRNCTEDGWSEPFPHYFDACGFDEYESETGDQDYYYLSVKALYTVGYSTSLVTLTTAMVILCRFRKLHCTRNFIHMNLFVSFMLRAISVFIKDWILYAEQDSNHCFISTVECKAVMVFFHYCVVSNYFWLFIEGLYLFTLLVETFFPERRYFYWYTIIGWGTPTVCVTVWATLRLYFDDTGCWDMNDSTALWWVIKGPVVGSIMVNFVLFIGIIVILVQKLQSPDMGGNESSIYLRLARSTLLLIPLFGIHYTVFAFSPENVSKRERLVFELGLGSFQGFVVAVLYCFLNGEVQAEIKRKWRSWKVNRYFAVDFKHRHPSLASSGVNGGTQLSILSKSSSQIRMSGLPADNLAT
# Assay: cell-based or functional assay
Binder,Fold-improvement over 29G4v22 Ab [fold],IC50 [nM]
B1,9.4,0.69
B2,6.2,1.04
B3,5.2,1.41
B4,10.9,0.67
B5,10.2,0.72
B6,9.2,0.79
B7,5.4,1.37
B8,9.5,0.77
B9,9.1,0.81
B10,5.2,1.33
B11,10.5,0.66
B12,11.4,0.61
B13,9.8,0.7
B14,7.2,0.57
B15,5.5,0.74
B16,6.7,0.61
B17,5.9,0.69
B18,3.8,1.27
B19,2.8,2.48
B20,2.1,2.65
B21,1.3,4.36
B22,6.9,0.97
B23,1.8,3.76
B24,3,2.21

# Target: human CGRP receptor (human, UniProt Q16602 23-461; O60894 27-148)
# Sequence (Q16602 23-461 limits assumed, chain 1 of 2): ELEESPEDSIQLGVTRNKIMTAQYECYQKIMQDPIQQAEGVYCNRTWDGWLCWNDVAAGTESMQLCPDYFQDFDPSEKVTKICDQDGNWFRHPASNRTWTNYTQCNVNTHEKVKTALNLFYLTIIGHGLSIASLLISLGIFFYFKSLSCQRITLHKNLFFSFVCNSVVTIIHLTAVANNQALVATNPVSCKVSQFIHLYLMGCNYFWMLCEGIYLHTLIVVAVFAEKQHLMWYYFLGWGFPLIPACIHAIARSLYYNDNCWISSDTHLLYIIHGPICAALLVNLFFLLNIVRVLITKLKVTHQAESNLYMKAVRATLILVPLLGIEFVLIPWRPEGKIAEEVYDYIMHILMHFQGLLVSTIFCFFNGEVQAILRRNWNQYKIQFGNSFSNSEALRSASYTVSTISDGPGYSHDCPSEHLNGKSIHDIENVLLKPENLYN
# Sequence (O60894 27-148 limits assumed, chain 2 of 2): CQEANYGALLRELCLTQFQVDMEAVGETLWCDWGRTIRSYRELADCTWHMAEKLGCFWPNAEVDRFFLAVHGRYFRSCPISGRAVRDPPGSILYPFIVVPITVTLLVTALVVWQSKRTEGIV
# Assay: cell-based or functional assay
Binder,Fold-improvement over 4E4 Ab [fold],IC50 [nM]
B1,0.4,1.41
B2,0.5,1.14
B3,0.6,1.04
B4,0.6,1.01
B5,0.5,1.16
B6,0.5,1.13
B7,0.4,1.63
B8,0.4,1.49
B9,0.3,1.98
B10,0.3,2.11
B11,0.4,1.25
B12,0.4,1.34
B13,0.4,1.4
B14,1.3,0.43
B15,1.2,0.47
B16,1.5,0.39
B17,0.8,0.66
B18,0.41,1.42
B19,1.1,0.51
B20,1.1,0.51
B21,0.9,0.58
B22,1,0.53
B23,1,0.52
B24,0.9,0.55
